Test in all cases: radiometric filter prenylation assay, Lineweaver-Burk
Holding throughout (assay type): biochemical, Arabidopsis thaliana

Substrate in data set [1]: CC(C)=CCC/C(C)=C/CC/C(C)=C/CC/C(C)=C/COP(=O)(O)OP(=O)(O)O
The conditions noted are these: co-substrate GFP-BD-CVIQ, 50 mM Hepes pH 7.5, 20 mM MgCl2, 5 mM ZnCl2, 5 mM DTT, 0.1% Zwittergent, 30°C, labelled compound. The text has this:
(§1) radiometric filter prenylation assay, Lineweaver-Burk on PFT (protein farnesyltransferase; PLP + ERA1)

Substrate in data set [2]: CC(C)=CCC/C(C)=C/CC/C(C)=C/CO[P@@](=O)(O)OP(=O)(O)O
As to conditions: co-substrate GFP-BD-CVIQ, 50 mM Hepes pH 7.5, 20 mM MgCl2, 5 mM ZnCl2, 5 mM DTT, 0.1% Zwittergent, 30°C, labelled compound.
Source text: as §1

Substrate in data set [3]: CC(C)=CCC/C(C)=C/CC/C(C)=C/CC/C(C)=C/COP(=O)(O)OP(=O)(O)O
As to conditions: co-substrate GFP-BD-CVIL, 50 mM Hepes pH 7.5, 20 mM MgCl2, 5 mM ZnCl2, 5 mM DTT, 0.1% Zwittergent, 30°C, labelled compound. From the text: (§2) radiometric filter prenylation assay, Lineweaver-Burk on PGGT1 (protein geranylgeranyltransferase type 1; PGGT I; PLP + GGB)

Substrate in data set [4]: CC(C)=CCC/C(C)=C/CC/C(C)=C/CO[P@@](=O)(O)OP(=O)(O)O
The conditions noted are these: co-substrate GFP-BD-CVIL, 50 mM Hepes pH 7.5, 20 mM MgCl2, 5 mM ZnCl2, 5 mM DTT, 0.1% Zwittergent, 30°C, labelled compound.
Source text: as §2

B1: PFT (protein farnesyltransferase; PLP + ERA1) (Arabidopsis thaliana) (protein)
chain 1: PVVTRLIRLKCVGLRLDRSGLNRRICHGGHGESTRRRVMEELSSLTVSQREQFLVENDVFGIYNYFDASDVSTQKYMMEIQRDKQLDYLMKGLRQLGPQFSSLDANRPWLCYWILHSIALLGETVDDELESNAIDFLGRCQGSEGGYGGGPGQLPHLATTYAAVNALVTLGGDKALSSINREKMSCFLRRMKDTSGGFRMHDMGEMDVRACYTAISVASILNIMDDELTQGLGDYILSCQTYEGGIGGEPGSEAHGGYTYCGLAAMILINEVDRLNLDSLMNWAVHRQGVEMGFQGRTNKLVDGCYTFWQAAPCVLLQRLYSTNDHDVHGSSHISEGTNEEHHAHDEDDLEDSDDDDDSDEDNDEDSVNGHRIHHTSTYINRRMQLVFDSLGLQRYVLLCSKIPDGGFRDKPRKPRDFYHTCYCLSGLSVAQHAWLKDEDTPPLTRDIMGGYSNLLEPVQLLHNIVMDQYNEAIEFFFKAA
chain 2: not shown
notes: alpha/beta heterodimer co-expressed in E. coli Rosetta (pETDuet-1); N-terminal FLAG on PLP, N-terminal 6xHis on ERA1 (MHHHHHH-PVVTRLI from primer), tags kept; Co2+-IMAC purified
Usually Km stands for the substrate concentration at which the rate is half of its maximum. As to B1, the Km was 0.7 ± 0.3 µM in data set [1] and 0.2 ± 0.1 µM in data set [2].

B2: PGGT1 (protein geranylgeranyltransferase type 1; PGGT I; PLP + GGB) (Arabidopsis thaliana) (protein)
chain 1: SETAVSIDSDRSKSEEEDEEEYSPPVQSSPSANFEKDRHLMYLEMMYELLPYHYQSQEINRLTLAHFIISGLHFLGARDRVDKDVVAKWVLSFQAFPTNRVSLKDGEFYGFFGSRSSQFPIDENGDLKHNGSHLASTYCALAILKVIGHDLSTIDSKSLLISMINLQQDDGSFMPIHIGGETDLRFVYCAAAICYMLDSWSGMDKESAKNYILNCQSYDGGFGLIPGSESHGGATYCAIASLRLMGYIGVDLLSNDSSSSIIDPSLLLNWCLQRQANDGGFQGRTNKPSDTCYAFWIGAVLKLIGGDALIDKMALRKFLMSCQSKYGGFSKFPGQLPDLYHSYYGYTAFSLLEEQGLSPLCPELGLPLLAAPGI
chain 2: not shown
notes: alpha/beta heterodimer co-expressed in E. coli Rosetta (pETDuet-1); N-terminal FLAG on PLP, N-terminal 6xHis on GGB (MHHHHHH-SETAVSI from primer), tags kept; Co2+-IMAC purified
Regarding B2, the values for the Km in data set [3] and in data set [4] were 0.8 ± 0.1 µM and 0.6 ± 0.5 µM, respectively.
